Patent publication US20100233079A1 (AbbVie / Abbott, published 2010)
Changes are numbered by the printed parent chain.

B1: 13C5.5 (antibody, V domains shown)
VH: EVTLRESGPGLVKPTQTLTLTCTLYGFSLSTSDMGVDWIRQPPGKGLEWLAHIWWDDVKRYNPALKSRLTISKDTSKNQVVLKLTSVDPVDTATYYCARTVSSGYIYYAMDYWGQGTLVTVSS
VL: DIQMTQSPSSLSASVGDRVTISCRASQDIRNYLNWYQQKPGKAPKLLIFYTSKLHSGVPSRFSGSGSGTDYTLTISSLQPEDIATYYCQQGNTLPLTFGGGTKVEIKR
notes: Monoclonal antibody; also called AB231
B2: 13C5.5L3F (antibody, V domains shown)
VH: B1 VH
VL: B1 VL with N92L, L94P
notes: Monoclonal antibody; also called AB232
B3: AB016 (antibody, V domains shown)
VH: EVQLVESGGGLVQPGGSLRLSCAASGFSFSSEPISWVRQAPGKGLEWVSSITGKNGYTYYADSVKGRFTISADTSKNTAYLQMNSLRAEDTAVYYCARWGKKVYGMDVWGQGTLVTVSS
VL: DIQMTQSPSSLSASVGDRVTITCRASQSISSYLAWYQQKPGKAPKLLIYGASSRASGVPSRFSGSGSGTDFTLTISSLQPEDFATYYCQQYMSVPITFGQGTKVEIKR
notes: Parent antibody

Assays:
[1] = molecular target: T1, rhIL-13 (recombinant human IL-13) (human, UniProt P35225 35-146, limits assumed); assay: SPR (Biacore 3000), mAb captured by anti-human IgG Fc, antigen in solution
T1 sequence (P35225 35-146 limits assumed): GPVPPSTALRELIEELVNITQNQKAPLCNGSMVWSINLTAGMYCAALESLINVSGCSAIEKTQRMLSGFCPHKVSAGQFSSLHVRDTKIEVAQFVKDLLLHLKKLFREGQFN
Source text: Unreacted moieties on the biosensor surface were blocked with ethanolamine. Modified carboxymethyl dextran surface in flowcell 2 and 4 was used as a reaction surface.

[2] = molecular target: T1, rhIL-13 (recombinant human IL-13); assay: cell-based or functional assay
[3] = molecular target: T2, NRP1 (Neuropilin-1 Npn-1-His tag) (UniProt O14786-2 22-644, limits assumed); assay: direct bind ELISA, antigen on plate
T2 construct: Bought antigen with a His tag
Protocol: Enzyme Linked Immunosorbent Assays to screen for antibodies that bind a desired target antigen were performed as follows. […] Plates were washed four times with PBS containing 0.02% Tween 20. […] Plates were washed four times after blocking with PBS containing 0.02% Tween 20.
One hundred microliters of 10 ng/mL goat anti-human IgG-FC specific HRP conjugated antibody (Southern Biotech #2040-05, Birmingham, Ala.) was added to each well of the desired target antigen plate or anti-polyHistidine antibody/Histidine tagged desired target antigen plate. Alternatively, one hundred microliters of 10 ng/mL goat anti-human IgG-kappa light chain specific HRP conjugated antibody (Southern Biotech #2060-05 Birmingham, Ala.) was added to each well of the desired target antigen/FC fusion plate and incubated for 1 hour at room temperature. Plates were washed 4 times with PBS containing 0.02% Tween 20.

| Binder | Kd [1] [pM] | IC50 (nM), A549 bioassay (IL-13 induced TARC) [2] [nM] | EC50 [3] [pM] |
| --- | --- | --- | --- |
| B1 | 150 | 0.2 |  |
| B2 | 240 | 0.31 |  |
| B3 |  |  | 280 |
